Laboratory results published in publication PMC2607015, “The Cell Adhesion Molecule “CAR” and Sialic Acid on Human Erythrocytes Influence Adenovirus In Vivo Biodistribution” (PLoS Pathogens, 2009).

Assays:
CAR D1 (human) = CAR D1 (human) (UniProt P78310)
[1] = target: wild type CAV-2 fiber head (canine adenovirus serotype 2 (CAV-2)) (UniProt Q65914); assay: crystal structure; untagged CAV-2 fiber head crystallised with sialyl-D-lactose; 1.9 Å
[2] = target: wild type CAV-2 fiber head (canine adenovirus serotype 2 (CAV-2)) (UniProt Q65914); assay: crystal structure; crystals of the CAV-2 fiber head - CAR D1 complex (space group I422) soaked with 10 to 50 mM sialyl-D-lactose; 2.9 Å
[3] = target: T1, HAd37 fiber head in complex with CAR D1 (Human adenovirus D37, UniProt Q64823); assay: X-ray crystal structure ([…] Å); format: binding; settings: ligand soaked at 10 to 50 mM; ternary complex with CAR D1; Neu5Ac site of fiber head, not overlapping CAR site; HAd37 Neu5Ac site near the three-fold axis
T1 construct: gene L5; fiber head residues 177-365 with CAR domain D1; one monomer of each in asymmetric unit (space group I23, trimer by symmetry); with Coxsackievirus and adenovirus receptor (human), Ig-like domain D1

[4] = target: T2, CAV-2 fiber head (CAV-2H^wt) (Canine adenovirus 2 strain Toronto A 26-61, UniProt Q65914); assay: X-ray crystal structure ([…] Å); format: binding; settings: crystals grown with 8 mM and soaked in about 80 mM ligand, pH 7.4; Neu5Ac moiety bound at trimer periphery (Asn435, Ser419, Ser416, Gln417, Arg515)
T2 construct: gene L5; fiber head domain residues 358-542, N-terminal His-tag cleaved with TEV, pPROEX HTb; homotrimer

CAR D1 (human), sequence (P78310 20-140): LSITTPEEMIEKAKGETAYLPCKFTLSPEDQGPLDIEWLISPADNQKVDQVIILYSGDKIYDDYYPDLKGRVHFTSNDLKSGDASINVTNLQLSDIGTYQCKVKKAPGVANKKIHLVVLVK

Compound	fold reduction of CAV-2 hemagglutination of human erythrocytes (CAR on the erythrocytes) after pre-incubating the erythrocytes with the fiber head (CAR D1 (human))	stoichiometry N [1]	stoichiometry N [2]	X-ray crystal structure (1.55 Å) [3]	X-ray crystal structure (1.9 Å) [4]
CAV-2H^SA−1: CAV-2 fiber head mutant R515A (from UniProt Q65914 358-542) (domain or fragment)	16 fold				
wild type CAV-2 fiber head (from UniProt Q65914 358-542) (domain or fragment)	> 256 fold	3	3		
CC(=O)N[C@H]1[C@H]([C@H](O)[C@H](O)CO)O[C@@](O[C@H]2[C@@H](O)[C@@H](CO)O[C@@H](O[C@H]3[C@H](O)[C@@H](O)C(O)O[C@@H]3CO)[C@@H]2O)(C(=O)O)C[C@@H]1O (stereo partly drawn) [sialyl-D-lactose, α2-3 N-acetylneuraminosyl-D-lactose]				one CAR D1 molecule and one sialyl-D-lactose molecule in the asymmetric unit	clear density for six N-acetyl neuraminic acid (Neu5AC) moieties in the asymmetric unit
CAV-2H^CAR−: CAV-2 fiber head with E384A mutation (CAR binding site) (from UniProt Q65914 358-542) (domain or fragment)	2 fold				
